Literature values, collected in article PMC3629029.

Molecular target: calreticulin (Homo sapiens) (UniProt P27797)
Assay: SPR

Sequence of UniProt P27797 (P27797 18-417): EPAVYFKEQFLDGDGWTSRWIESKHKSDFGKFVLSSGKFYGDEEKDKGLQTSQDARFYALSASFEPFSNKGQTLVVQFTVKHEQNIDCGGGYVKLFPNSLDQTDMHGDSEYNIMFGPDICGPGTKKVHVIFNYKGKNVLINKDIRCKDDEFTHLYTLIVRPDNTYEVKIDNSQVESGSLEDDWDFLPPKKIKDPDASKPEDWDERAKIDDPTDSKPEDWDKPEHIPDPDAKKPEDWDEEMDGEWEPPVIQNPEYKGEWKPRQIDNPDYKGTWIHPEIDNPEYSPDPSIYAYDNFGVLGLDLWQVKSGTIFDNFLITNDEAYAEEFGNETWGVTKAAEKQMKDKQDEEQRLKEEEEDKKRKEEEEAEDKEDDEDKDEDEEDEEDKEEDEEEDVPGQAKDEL

For PDIR (from UniProt Q14554), the Kd is given as 16 µM.
